Experimental data reported in PMC7154865, “High-Level Expression, Purification and Initial Characterization of Recombinant Arabidopsis Histidine Kinase AHK1” (Plants, 2020).

How the values were obtained:
[1] = molecular target: AHP1 (Arabidopsis thaliana) (UniProt Q9ZNV9); details: cited from earlier work
[2] = molecular target: ETR1 (Arabidopsis thaliana) (UniProt P49333); assay: MST; details: cited from earlier work
[3] = molecular target: ETR2 (Arabidopsis thaliana) (UniProt Q0WPQ2); assay: MST; details: cited from earlier work
[4] = molecular target: recombinant full-length Arabidopsis histidine kinase AHK1 (H10-TEV-AHK1), solubilized in FosCholine-16 (Arabidopsis thaliana) (UniProt Q9SXL4); assay: MST; 40 nM AlexaFluor488-labelled AHK1 titrated with unlabelled AHK1 (12 uM to 0.4 nM); 50 mM Tris, 300 mM NaCl, 0.015% FosCholine-16, glycerol, pH 7.6; 40% MST power, 70% LED power; initial fluorescence evaluated; one-binding-site model; apparent Kd; monomer to dimer
[5] = molecular target: T1, recombinant full-length Arabidopsis histidine kinase AHK1 (H10-TEV-AHK1), solubilized in FosCholine-16 (Arabidopsis thaliana, UniProt Q9SXL4 1-1207, AlexaFluor488-NHS label on the labelled copy (40 nM) used in MST; the titrated copy is unlabelled); assay: MST; 40 nM AlexaFluor488-labelled AHK1 titrated with AHP2-GST (12.5 uM to 0.4 nM); HEPES/Tris 50 mM, 300 mM NaCl, FosCholine-16, 5% glycerol, pH 7.6; 40% MST power, 30% LED power; T-Jump evaluated; one-binding-site model; apparent Kd; seven measurements; details: both partners purified
T1 construct: Arabidopsis histidine kinase 1 (AHK1), Arabidopsis thaliana, full length; cloned into pET16b-H10-TEV with primers from the ATG to the stop codon; a TEV site lies between the tag and AHK1; No step that cleaves the tag is described; also called AHK1 sensor kinase; AHK1 osmosensor; source: E. coli BL21 (DE3) with pRARE, solubilized with 1% FosCholine-16, purified (Ni-NTA)
T1 sequence (looked up): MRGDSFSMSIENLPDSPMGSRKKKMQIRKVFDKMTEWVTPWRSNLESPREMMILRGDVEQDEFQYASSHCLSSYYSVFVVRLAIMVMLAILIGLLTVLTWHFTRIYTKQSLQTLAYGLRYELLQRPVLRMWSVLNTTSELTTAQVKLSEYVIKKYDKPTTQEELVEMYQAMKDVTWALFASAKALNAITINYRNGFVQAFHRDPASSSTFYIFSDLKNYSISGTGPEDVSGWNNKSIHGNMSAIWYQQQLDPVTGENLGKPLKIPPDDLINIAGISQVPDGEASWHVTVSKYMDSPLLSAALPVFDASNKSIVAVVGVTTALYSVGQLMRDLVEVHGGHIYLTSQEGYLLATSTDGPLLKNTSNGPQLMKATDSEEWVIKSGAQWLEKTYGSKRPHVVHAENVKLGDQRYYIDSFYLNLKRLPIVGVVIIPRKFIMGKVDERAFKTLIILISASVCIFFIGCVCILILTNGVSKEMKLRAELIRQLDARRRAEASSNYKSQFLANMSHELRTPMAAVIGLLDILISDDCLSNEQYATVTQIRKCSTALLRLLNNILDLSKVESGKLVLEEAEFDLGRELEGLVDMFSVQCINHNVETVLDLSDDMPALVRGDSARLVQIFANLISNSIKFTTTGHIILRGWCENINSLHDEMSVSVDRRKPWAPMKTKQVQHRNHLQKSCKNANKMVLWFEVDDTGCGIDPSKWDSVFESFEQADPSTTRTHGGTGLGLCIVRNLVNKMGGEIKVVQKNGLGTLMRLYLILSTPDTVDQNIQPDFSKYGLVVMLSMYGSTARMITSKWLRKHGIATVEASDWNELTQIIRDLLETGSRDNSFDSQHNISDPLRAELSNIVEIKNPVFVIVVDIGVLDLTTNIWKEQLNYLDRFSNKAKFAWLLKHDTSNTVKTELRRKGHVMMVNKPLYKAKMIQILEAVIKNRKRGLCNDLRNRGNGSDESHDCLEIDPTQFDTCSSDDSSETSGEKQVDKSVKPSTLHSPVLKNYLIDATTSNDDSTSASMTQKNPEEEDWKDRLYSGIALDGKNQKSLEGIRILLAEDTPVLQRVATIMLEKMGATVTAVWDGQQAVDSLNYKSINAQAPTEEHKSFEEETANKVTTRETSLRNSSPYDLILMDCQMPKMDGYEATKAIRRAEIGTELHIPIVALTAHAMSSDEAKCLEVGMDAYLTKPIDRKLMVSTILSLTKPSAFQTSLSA

Sequence of AHP1 (Arabidopsis thaliana) (Q9ZNV9 whole entry): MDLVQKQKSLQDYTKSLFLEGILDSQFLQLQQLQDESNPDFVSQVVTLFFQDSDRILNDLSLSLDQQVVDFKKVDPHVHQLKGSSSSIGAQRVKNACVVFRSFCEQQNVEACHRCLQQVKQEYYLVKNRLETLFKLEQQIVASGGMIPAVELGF

**Q.** Which Kd [1] does the source give for ETR1 (from UniProt P49333) here?
**A.** 1500 nM

**Q.** What about the Kd [2] of the same molecule?
**A.** 326 nM

**Q.** Which Kd [3] does the source give for ETR2 (from UniProt Q0WPQ2) here?
**A.** 96 nM

**Q.** For “recombinant full-length Arabidopsis histidine kinase AHK1 (H10-TEV-AHK1), solubilized in FosCholine-16 (from UniProt Q9SXL4 1-1207) (receptor)”, which Kd [4] is on record?
**A.** 208 nM

B1: GST-fusion protein of Arabidopsis histidine phosphotransfer protein 2 (AHP2) (natural protein, Arabidopsis thaliana, UniProt Q9ZNV8 1-156, looked up)
chain: MDALIAQLQRQFRDYTISLYQQGFLDDQFTELKKLQDDGSPDFVSEVLSLFFEDCVKLISNMARALDTTGTVDFSQVGASVHQLKGSSSSVGAKRVKTLCVSFKECCEAKNYEGCVRCLQQVDIEYKALKTKLQDMFNLEKQIIQAGGIVPQVDIN
notes: Arabidopsis histidine phosphotransfer protein 2 (AHP2), Arabidopsis thaliana; cDNA cloned into pGEX-6P-1; The apparent mass is 44 kDa; also called AHP2-GST; GST-tagged AHP2
**Q.** For B1, which Kd [5] is on record?
**A.** 317 ± 62 nM
